Source: patent US20180155407A1 (Sanofi, published 2018)
Numbered stars: 1 amine (or outer) side, 2 acyl side, 3 side chain; on linkers, the order of the positions; unused ones are H or OH. Square brackets hold non-standard residues; d marks the D form. Side chains are listed from the residue outwards. Ends that are not written are not given here. * marks the point of attachment. γGlu = O=C(O)[C@H](CCC(=O)[*:2])N[*:1]; Palmitoyl = CCCCCCCCCCCCCCCC(=O)*; Aib = CC(C)(N)C(=O)O

T1: human GIP receptor (human, UniProt P48546 22-466)
T1 sequence (looked up): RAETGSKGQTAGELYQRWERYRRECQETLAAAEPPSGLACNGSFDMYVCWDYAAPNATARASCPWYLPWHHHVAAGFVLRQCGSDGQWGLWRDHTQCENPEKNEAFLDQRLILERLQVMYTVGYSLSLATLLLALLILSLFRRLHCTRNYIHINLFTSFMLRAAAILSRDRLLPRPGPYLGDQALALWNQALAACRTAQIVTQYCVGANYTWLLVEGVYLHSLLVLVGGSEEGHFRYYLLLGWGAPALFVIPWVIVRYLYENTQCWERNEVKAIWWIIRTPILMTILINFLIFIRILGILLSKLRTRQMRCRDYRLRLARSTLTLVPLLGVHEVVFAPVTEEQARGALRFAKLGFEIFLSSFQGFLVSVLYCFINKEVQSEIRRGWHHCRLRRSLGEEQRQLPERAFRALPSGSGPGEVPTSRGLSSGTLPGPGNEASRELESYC

B1: SEQ ID NO: 9 (peptide)
peptide: H[Aib]QGTFTSDLSKLK([γGlu-γGlu-Palmitoyl])EEQRQ[Aib]EFIEWLKAGGPPS[Aib]KPPPK-NH2
modifications: N-terminus assumed
SMILES: CCCCCCCCCCCCCCCC(=O)N[C@@H](CCC(=O)N[C@@H](CCC(=O)NCCCC[C@H](NC(=O)[C@H](CC(C)C)NC(=O)[C@H](CCCCN)NC(=O)[C@H](CO)NC(=O)[C@H](CC(C)C)NC(=O)[C@H](CC(=O)O)NC(=O)[C@H](CO)NC(=O)[C@@H](NC(=O)[C@H](Cc1ccccc1)NC(=O)[C@@H](NC(=O)CNC(=O)[C@H](CCC(N)=O)NC(=O)C(C)(C)NC(=O)[C@@H](N)Cc1c[nH]cn1)[C@@H](C)O)[C@@H](C)O)C(=O)N[C@@H](CCC(=O)O)C(=O)N[C@@H](CCC(=O)O)C(=O)N[C@@H](CCC(N)=O)C(=O)N[C@@H](CCCNC(=N)N)C(=O)N[C@@H](CCC(N)=O)C(=O)NC(C)(C)C(=O)N[C@@H](CCC(=O)O)C(=O)N[C@@H](Cc1ccccc1)C(=O)N[C@H](C(=O)N[C@@H](CCC(=O)O)C(=O)N[C@@H](Cc1c[nH]c2ccccc12)C(=O)N[C@@H](CC(C)C)C(=O)N[C@@H](CCCCN)C(=O)N[C@@H](C)C(=O)NCC(=O)NCC(=O)N1CCC[C@H]1C(=O)N1CCC[C@H]1C(=O)N[C@@H](CO)C(=O)NC(C)(C)C(=O)N[C@@H](CCCCN)C(=O)N1CCC[C@H]1C(=O)N1CCC[C@H]1C(=O)N1CCC[C@H]1C(=O)N[C@@H](CCCCN)C(N)=O)[C@@H](C)CC)C(=O)O)C(=O)O
B2: SEQ ID NO: 11 (peptide)
peptide: H[Aib]QGTFTSDLSKLK([γGlu-γGlu-Palmitoyl])EEQRQ[Aib]EFIEWLKA[dA]GHPS[Aib]KPPPK-NH2
modifications: N-terminus assumed
SMILES: CCCCCCCCCCCCCCCC(=O)N[C@@H](CCC(=O)N[C@@H](CCC(=O)NCCCC[C@H](NC(=O)[C@H](CC(C)C)NC(=O)[C@H](CCCCN)NC(=O)[C@H](CO)NC(=O)[C@H](CC(C)C)NC(=O)[C@H](CC(=O)O)NC(=O)[C@H](CO)NC(=O)[C@@H](NC(=O)[C@H](Cc1ccccc1)NC(=O)[C@@H](NC(=O)CNC(=O)[C@H](CCC(N)=O)NC(=O)C(C)(C)NC(=O)[C@@H](N)Cc1c[nH]cn1)[C@@H](C)O)[C@@H](C)O)C(=O)N[C@@H](CCC(=O)O)C(=O)N[C@@H](CCC(=O)O)C(=O)N[C@@H](CCC(N)=O)C(=O)N[C@@H](CCCNC(=N)N)C(=O)N[C@@H](CCC(N)=O)C(=O)NC(C)(C)C(=O)N[C@@H](CCC(=O)O)C(=O)N[C@@H](Cc1ccccc1)C(=O)N[C@H](C(=O)N[C@@H](CCC(=O)O)C(=O)N[C@@H](Cc1c[nH]c2ccccc12)C(=O)N[C@@H](CC(C)C)C(=O)N[C@@H](CCCCN)C(=O)N[C@@H](C)C(=O)N[C@H](C)C(=O)NCC(=O)N[C@@H](Cc1c[nH]cn1)C(=O)N1CCC[C@H]1C(=O)N[C@@H](CO)C(=O)NC(C)(C)C(=O)N[C@@H](CCCCN)C(=O)N1CCC[C@H]1C(=O)N1CCC[C@H]1C(=O)N1CCC[C@H]1C(=O)N[C@@H](CCCCN)C(N)=O)[C@@H](C)CC)C(=O)O)C(=O)O
B3: SEQ ID NO: 12 (peptide)
peptide: H[Aib]QGTFTSDLSKLK([γGlu-γGlu-Palmitoyl])EKQRQ[Aib]EFIEWLKAGGHPS[Aib]KPPPK-NH2
modifications: N-terminus assumed
SMILES: CCCCCCCCCCCCCCCC(=O)N[C@@H](CCC(=O)N[C@@H](CCC(=O)NCCCC[C@H](NC(=O)[C@H](CC(C)C)NC(=O)[C@H](CCCCN)NC(=O)[C@H](CO)NC(=O)[C@H](CC(C)C)NC(=O)[C@H](CC(=O)O)NC(=O)[C@H](CO)NC(=O)[C@@H](NC(=O)[C@H](Cc1ccccc1)NC(=O)[C@@H](NC(=O)CNC(=O)[C@H](CCC(N)=O)NC(=O)C(C)(C)NC(=O)[C@@H](N)Cc1c[nH]cn1)[C@@H](C)O)[C@@H](C)O)C(=O)N[C@@H](CCC(=O)O)C(=O)N[C@@H](CCCCN)C(=O)N[C@@H](CCC(N)=O)C(=O)N[C@@H](CCCNC(=N)N)C(=O)N[C@@H](CCC(N)=O)C(=O)NC(C)(C)C(=O)N[C@@H](CCC(=O)O)C(=O)N[C@@H](Cc1ccccc1)C(=O)N[C@H](C(=O)N[C@@H](CCC(=O)O)C(=O)N[C@@H](Cc1c[nH]c2ccccc12)C(=O)N[C@@H](CC(C)C)C(=O)N[C@@H](CCCCN)C(=O)N[C@@H](C)C(=O)NCC(=O)NCC(=O)N[C@@H](Cc1c[nH]cn1)C(=O)N1CCC[C@H]1C(=O)N[C@@H](CO)C(=O)NC(C)(C)C(=O)N[C@@H](CCCCN)C(=O)N1CCC[C@H]1C(=O)N1CCC[C@H]1C(=O)N1CCC[C@H]1C(=O)N[C@@H](CCCCN)C(N)=O)[C@@H](C)CC)C(=O)O)C(=O)O
B4: SEQ ID NO: 8 (peptide)
peptide: H[Aib]QGTFTSDLSKLK([γGlu-γGlu-Palmitoyl])EEQRQ[Aib]EFIEWLKAGGHPS[Aib]KPPPK-NH2
modifications: N-terminus assumed
SMILES: CCCCCCCCCCCCCCCC(=O)N[C@@H](CCC(=O)N[C@@H](CCC(=O)NCCCC[C@H](NC(=O)[C@H](CC(C)C)NC(=O)[C@H](CCCCN)NC(=O)[C@H](CO)NC(=O)[C@H](CC(C)C)NC(=O)[C@H](CC(=O)O)NC(=O)[C@H](CO)NC(=O)[C@@H](NC(=O)[C@H](Cc1ccccc1)NC(=O)[C@@H](NC(=O)CNC(=O)[C@H](CCC(N)=O)NC(=O)C(C)(C)NC(=O)[C@@H](N)Cc1c[nH]cn1)[C@@H](C)O)[C@@H](C)O)C(=O)N[C@@H](CCC(=O)O)C(=O)N[C@@H](CCC(=O)O)C(=O)N[C@@H](CCC(N)=O)C(=O)N[C@@H](CCCNC(=N)N)C(=O)N[C@@H](CCC(N)=O)C(=O)NC(C)(C)C(=O)N[C@@H](CCC(=O)O)C(=O)N[C@@H](Cc1ccccc1)C(=O)N[C@H](C(=O)N[C@@H](CCC(=O)O)C(=O)N[C@@H](Cc1c[nH]c2ccccc12)C(=O)N[C@@H](CC(C)C)C(=O)N[C@@H](CCCCN)C(=O)N[C@@H](C)C(=O)NCC(=O)NCC(=O)N[C@@H](Cc1c[nH]cn1)C(=O)N1CCC[C@H]1C(=O)N[C@@H](CO)C(=O)NC(C)(C)C(=O)N[C@@H](CCCCN)C(=O)N1CCC[C@H]1C(=O)N1CCC[C@H]1C(=O)N1CCC[C@H]1C(=O)N[C@@H](CCCCN)C(N)=O)[C@@H](C)CC)C(=O)O)C(=O)O
B5: SEQ ID NO: 13 (peptide)
peptide: H[Aib]QGTFTSDLSKLK([γGlu-γGlu-Palmitoyl])EKQRQ[Aib]EFIEWLKA[dA]GHPS[Aib]KPPPK-NH2
modifications: N-terminus assumed
SMILES: CCCCCCCCCCCCCCCC(=O)N[C@@H](CCC(=O)N[C@@H](CCC(=O)NCCCC[C@H](NC(=O)[C@H](CC(C)C)NC(=O)[C@H](CCCCN)NC(=O)[C@H](CO)NC(=O)[C@H](CC(C)C)NC(=O)[C@H](CC(=O)O)NC(=O)[C@H](CO)NC(=O)[C@@H](NC(=O)[C@H](Cc1ccccc1)NC(=O)[C@@H](NC(=O)CNC(=O)[C@H](CCC(N)=O)NC(=O)C(C)(C)NC(=O)[C@@H](N)Cc1c[nH]cn1)[C@@H](C)O)[C@@H](C)O)C(=O)N[C@@H](CCC(=O)O)C(=O)N[C@@H](CCCCN)C(=O)N[C@@H](CCC(N)=O)C(=O)N[C@@H](CCCNC(=N)N)C(=O)N[C@@H](CCC(N)=O)C(=O)NC(C)(C)C(=O)N[C@@H](CCC(=O)O)C(=O)N[C@@H](Cc1ccccc1)C(=O)N[C@H](C(=O)N[C@@H](CCC(=O)O)C(=O)N[C@@H](Cc1c[nH]c2ccccc12)C(=O)N[C@@H](CC(C)C)C(=O)N[C@@H](CCCCN)C(=O)N[C@@H](C)C(=O)N[C@H](C)C(=O)NCC(=O)N[C@@H](Cc1c[nH]cn1)C(=O)N1CCC[C@H]1C(=O)N[C@@H](CO)C(=O)NC(C)(C)C(=O)N[C@@H](CCCCN)C(=O)N1CCC[C@H]1C(=O)N1CCC[C@H]1C(=O)N1CCC[C@H]1C(=O)N[C@@H](CCCCN)C(N)=O)[C@@H](C)CC)C(=O)O)C(=O)O
B6: SEQ ID NO: 10 (peptide)
peptide: H[Aib]QGTFTSDLSKLK([γGlu-γGlu-Palmitoyl])EEQRQ[Aib]EFIEWLKA[dA]GPPS[Aib]KPPPK-NH2
modifications: N-terminus assumed
SMILES: CCCCCCCCCCCCCCCC(=O)N[C@@H](CCC(=O)N[C@@H](CCC(=O)NCCCC[C@H](NC(=O)[C@H](CC(C)C)NC(=O)[C@H](CCCCN)NC(=O)[C@H](CO)NC(=O)[C@H](CC(C)C)NC(=O)[C@H](CC(=O)O)NC(=O)[C@H](CO)NC(=O)[C@@H](NC(=O)[C@H](Cc1ccccc1)NC(=O)[C@@H](NC(=O)CNC(=O)[C@H](CCC(N)=O)NC(=O)C(C)(C)NC(=O)[C@@H](N)Cc1c[nH]cn1)[C@@H](C)O)[C@@H](C)O)C(=O)N[C@@H](CCC(=O)O)C(=O)N[C@@H](CCC(=O)O)C(=O)N[C@@H](CCC(N)=O)C(=O)N[C@@H](CCCNC(=N)N)C(=O)N[C@@H](CCC(N)=O)C(=O)NC(C)(C)C(=O)N[C@@H](CCC(=O)O)C(=O)N[C@@H](Cc1ccccc1)C(=O)N[C@H](C(=O)N[C@@H](CCC(=O)O)C(=O)N[C@@H](Cc1c[nH]c2ccccc12)C(=O)N[C@@H](CC(C)C)C(=O)N[C@@H](CCCCN)C(=O)N[C@@H](C)C(=O)N[C@H](C)C(=O)NCC(=O)N1CCC[C@H]1C(=O)N1CCC[C@H]1C(=O)N[C@@H](CO)C(=O)NC(C)(C)C(=O)N[C@@H](CCCCN)C(=O)N1CCC[C@H]1C(=O)N1CCC[C@H]1C(=O)N1CCC[C@H]1C(=O)N[C@@H](CCCCN)C(N)=O)[C@@H](C)CC)C(=O)O)C(=O)O

Legend:
Assay in all cases: cell-based or functional assay
human GLP-1 receptor = human GLP-1 receptor (human, UniProt P43220 24-463)
human glucagon receptor = human glucagon receptor (human, UniProt P47871 26-477)
human glucagon receptor, sequence (P47871 26-477): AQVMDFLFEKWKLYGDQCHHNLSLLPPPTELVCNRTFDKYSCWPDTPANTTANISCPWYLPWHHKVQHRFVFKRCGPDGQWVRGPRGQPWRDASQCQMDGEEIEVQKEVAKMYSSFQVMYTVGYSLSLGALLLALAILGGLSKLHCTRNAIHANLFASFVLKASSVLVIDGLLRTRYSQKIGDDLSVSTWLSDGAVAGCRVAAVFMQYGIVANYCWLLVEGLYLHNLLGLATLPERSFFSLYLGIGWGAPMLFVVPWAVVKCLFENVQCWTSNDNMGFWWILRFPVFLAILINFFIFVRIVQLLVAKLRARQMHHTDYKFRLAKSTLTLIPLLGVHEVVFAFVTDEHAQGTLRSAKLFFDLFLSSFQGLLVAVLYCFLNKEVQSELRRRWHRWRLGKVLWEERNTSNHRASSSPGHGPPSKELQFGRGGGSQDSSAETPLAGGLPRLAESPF

human GIP receptor = target: T1, human GIP receptor

Binder | EC50 hGLP-1R (cAMP formation) (human GLP-1 receptor) [pM] | EC50 hGlucagon R (cAMP formation) (human glucagon receptor) [pM] | EC50 hGIP R (cAMP formation) (human GIP receptor) [pM]
B1 | 2.6 | 24.7 | 5.6
B2 | 2.3 | 22.4 | 3.5
B3 | 2.7 | 22 | 15.8
B4 | 2.2 | 32.6 | 5.6
B5 | 3.8 | 25.8 | 20.4
B6 | 2.4 | 26.1 | 5.4
